Biological target: adt2_human SLC25A5 (UniProt P05141)
Sequence (P05141 whole entry): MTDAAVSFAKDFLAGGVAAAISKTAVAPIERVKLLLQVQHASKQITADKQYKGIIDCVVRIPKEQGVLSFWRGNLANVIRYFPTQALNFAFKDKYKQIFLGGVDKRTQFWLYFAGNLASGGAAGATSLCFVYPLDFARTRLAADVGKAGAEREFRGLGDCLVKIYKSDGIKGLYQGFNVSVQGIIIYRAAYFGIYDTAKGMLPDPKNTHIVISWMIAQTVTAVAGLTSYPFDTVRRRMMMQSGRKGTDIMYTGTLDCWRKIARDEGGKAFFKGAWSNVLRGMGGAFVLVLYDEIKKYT

Chain of Cytoplasmic protein NCK2 (Homo sapiens), O43639 R311K (O43639 whole entry R311K): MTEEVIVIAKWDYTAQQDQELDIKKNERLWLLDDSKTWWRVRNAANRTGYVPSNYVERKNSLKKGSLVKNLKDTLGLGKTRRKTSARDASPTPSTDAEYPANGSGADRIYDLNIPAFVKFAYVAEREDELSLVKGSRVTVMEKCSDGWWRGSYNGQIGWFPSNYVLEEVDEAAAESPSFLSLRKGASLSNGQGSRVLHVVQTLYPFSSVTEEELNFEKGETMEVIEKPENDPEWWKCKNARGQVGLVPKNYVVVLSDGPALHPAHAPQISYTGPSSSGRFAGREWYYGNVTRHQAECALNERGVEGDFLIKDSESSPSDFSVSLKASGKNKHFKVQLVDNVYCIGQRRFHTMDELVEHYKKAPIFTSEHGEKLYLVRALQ

effect of a mutation on the interaction: disrupting interaction
Substance: Cytoplasmic protein NCK2 (Homo sapiens), O43639 R311K
